This note sets out measurements from PMC5457685, “Pellino-1 promotes lung carcinogenesis via the stabilization of Slug and Snail through K63-mediated polyubiquitination” (Cell Death and Differentiation, 2016).

The test deals with T1, His-tagged Pellino-1 (human, UniProt Q96FA3 1-418).
T1 construct: Pellino-1, human; Pellino-1 FL subcloned into a His6-tagged fusion plasmid; The pull-down text names only 'His-Pellino-1'; also called His-Pellino-1; source: purified His-tagged protein
T1 sequence (looked up): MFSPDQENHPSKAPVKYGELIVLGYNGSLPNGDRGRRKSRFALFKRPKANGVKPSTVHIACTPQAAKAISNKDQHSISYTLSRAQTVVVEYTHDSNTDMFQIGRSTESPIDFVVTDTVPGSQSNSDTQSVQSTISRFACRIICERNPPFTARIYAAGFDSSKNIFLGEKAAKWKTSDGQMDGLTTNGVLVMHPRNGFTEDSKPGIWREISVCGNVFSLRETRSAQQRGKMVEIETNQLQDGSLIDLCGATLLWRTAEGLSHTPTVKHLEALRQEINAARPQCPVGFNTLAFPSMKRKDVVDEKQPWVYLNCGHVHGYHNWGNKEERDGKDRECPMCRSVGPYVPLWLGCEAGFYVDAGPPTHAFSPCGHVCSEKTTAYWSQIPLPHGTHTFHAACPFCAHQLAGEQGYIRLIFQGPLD
The test is described as follows: pull-down; GST-Slug or GST-Snail adsorbed onto glutathione beads, incubated with purified His-tagged Pellino-1; bound proteins immunoblotted. As to conditions: both partners purified. For orientation: A western blot detects proteins with antibodies after separation by electrophoresis.

B1: GST–Slug fusion protein (natural protein, human, UniProt O43623 1-268, looked up)
chain: MPRSFLVKKHFNASKKPNYSELDTHTVIISPYLYESYSMPVIPQPEILSSGAYSPITVWTTAAPFHAQLPNGLSPLSGYSSSLGRVSPPPPSDTSSKDHSGSESPISDEEERLQSKLSDPHAIEAEKFQCNLCNKTYSTFSGLAKHKQLHCDAQSRKSFSCKYCDKEYVSLGALKMHIRTHTLPCVCKICGKAFSRPWLLQGHIRTHTGEKPFSCPHCNRAFADRSNLRAHLQTHSDVKKYQCKNCSKTFSRMSLLHKHEESGCCVAH
notes: Slug, human; pGEX-KG vector encoding GST-tagged human Slug (gift); source: GST fusion protein (pGEX-KG vector) adsorbed onto glutathione beads
Regarding B1, the binding result is listed as “binds”.
